Measurements from article doi:10.1101/620195, “Modulation of DNA polymerase IV activity by UmuD and RecA* observed by single-molecule time-lapse microscopy” (bioRxiv, 2019).

Target: T1, E. coli RecA(E38K) protein (E. coli, UniProt P0A7G6 1-353, E38K)
T1 construct: RecA recombinase, E. coli, with the E38K mutation (allele recA730); In the assay it stood as a filament assembled with ATPγS on a biotinylated 60-mer dsDNA held on a streptavidin chip; also called recA730; RecA(E38K)-ATPγS filaments
T1 sequence (looked up): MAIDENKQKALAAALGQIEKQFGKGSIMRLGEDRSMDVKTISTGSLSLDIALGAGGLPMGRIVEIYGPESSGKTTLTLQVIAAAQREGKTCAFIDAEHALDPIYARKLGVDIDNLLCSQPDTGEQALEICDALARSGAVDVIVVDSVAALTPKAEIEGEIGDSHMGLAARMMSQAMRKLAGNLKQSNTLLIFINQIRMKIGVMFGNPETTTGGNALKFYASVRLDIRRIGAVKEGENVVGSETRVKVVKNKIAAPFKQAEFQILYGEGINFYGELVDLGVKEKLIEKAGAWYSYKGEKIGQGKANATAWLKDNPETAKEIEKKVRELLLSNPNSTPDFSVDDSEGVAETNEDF
Experiment: SPR; BIAcore T200, SA chip; RecA(E38K) filaments assembled on immobilised biotinylated 60-mer dsDNA; 0.65 uM pol IV injected for 220 s at 5 uL/min; 20 °C; 20 mM Tris-HCl pH 8.0, 10 mM KCl, 10 mM MgCl2, 0.005% surfactant P20, 0.5 mM dithiothreitol, 0.5 mM ATPγS
Details: both partners purified

binding result: binds
B1: DNA polymerase IV (pol IV) (enzyme, E. coli, UniProt Q47155 1-351, looked up)
chain: MRKIIHVDMDCFFAAVEMRDNPALRDIPIAIGGSRERRGVISTANYPARKFGVRSAMPTGMALKLCPHLTLLPGRFDAYKEASNHIREIFSRYTSRIEPLSLDEAYLDVTDSVHCHGSATLIAQEIRQTIFNELQLTASAGVAPVKFLAKIASDMNKPNGQFVITPAEVPAFLQTLPLAKIPGVGKVSAAKLEAMGLRTCGDVQKCDLVMLLKRFGKFGRILWERSQGIDERDVNSERLRKSVGVERTMAEDIHHWSECEAIIERLYPELERRLAKVKPDLLIARQGVKLKFDDFQQTTQEHVWPRLNKADLIATARKTWDERRGGRGVRLVGLHVTLLDPQMERQLVLGL
notes: DNA polymerase IV, product of dinB, E. coli; Native pol IV, no tag, > 99% pure; also called DinB
